# Data taken from patent US20150174237A1 (HENRY M JACKSON FOUNDATION FOR THE ADVANCEMENT OF MILITARY …, published 2015).
# T1: mouse B cell CD21 (on mouse B cells) (mouse, UniProt P19070 12-1025)
# T1 construct: whole, on cells
# T1 sequence: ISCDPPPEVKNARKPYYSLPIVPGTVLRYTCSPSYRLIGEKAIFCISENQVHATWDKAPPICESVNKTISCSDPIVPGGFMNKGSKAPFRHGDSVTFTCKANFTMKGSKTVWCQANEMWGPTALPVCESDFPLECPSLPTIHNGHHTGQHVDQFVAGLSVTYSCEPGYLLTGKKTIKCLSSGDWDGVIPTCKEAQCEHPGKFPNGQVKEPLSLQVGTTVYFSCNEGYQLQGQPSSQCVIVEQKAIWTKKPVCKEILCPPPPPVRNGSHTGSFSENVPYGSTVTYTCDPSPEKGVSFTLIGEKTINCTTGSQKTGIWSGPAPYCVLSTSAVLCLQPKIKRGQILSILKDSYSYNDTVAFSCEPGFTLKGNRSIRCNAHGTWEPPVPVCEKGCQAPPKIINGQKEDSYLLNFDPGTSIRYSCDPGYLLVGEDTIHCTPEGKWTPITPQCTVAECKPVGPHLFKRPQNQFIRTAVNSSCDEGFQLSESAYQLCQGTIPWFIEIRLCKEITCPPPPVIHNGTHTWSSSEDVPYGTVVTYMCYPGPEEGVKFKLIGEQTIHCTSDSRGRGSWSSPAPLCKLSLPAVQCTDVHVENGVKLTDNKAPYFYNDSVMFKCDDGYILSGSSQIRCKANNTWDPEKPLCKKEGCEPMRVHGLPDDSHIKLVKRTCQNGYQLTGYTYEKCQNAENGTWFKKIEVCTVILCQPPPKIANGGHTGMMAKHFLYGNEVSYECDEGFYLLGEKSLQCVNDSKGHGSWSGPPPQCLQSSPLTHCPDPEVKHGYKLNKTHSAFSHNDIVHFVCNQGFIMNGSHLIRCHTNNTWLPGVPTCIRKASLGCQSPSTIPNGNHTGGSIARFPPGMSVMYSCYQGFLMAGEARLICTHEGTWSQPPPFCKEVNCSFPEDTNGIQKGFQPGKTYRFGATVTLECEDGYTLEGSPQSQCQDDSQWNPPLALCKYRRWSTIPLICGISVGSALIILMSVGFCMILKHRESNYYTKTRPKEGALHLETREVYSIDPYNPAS
# Target: T1, mouse B cell CD21 (on mouse B cells)
# Test: not described (own observation on mouse B cells)
binder,measurement,value
"monomeric gp350 (truncated EBV gp350, amino acids 1-470, with His6 tag) (ligand) MEAALLVCQYTIQSLIHLTGEDPGFFNVEIPEFPFYPTCNVCTADVNVTINFDVGGKKHQLDLDFGQLTPHTKAVYQPRGAFGGSENATNLFLLELLGAGELALTMRSKKLPINVTTGEEQQVSLESVDVYFQDVFGTMWCHHAEMQNPVYLIPETVPYIKWDNCNSTNITAVVRAQGLDVTLPLSLPTSAQDSNFSVKTEMLGNEIDIECIMEDGEISQVLPGDNKFNITCSGYESHVPSGGILTSTSPVATPIPGTGYAYSLRLTPRPVSRFLGNNSILYVFYSGNGPKASGGDYCIQSNIVFSDEIPASQDMPTNTTDITYVGDNATYSVPMVTSEDANSPNVTVTAFWAWPNNTETDFKCKWTLTSGTPSGCENISGAFASNRTFDITVSGLGTAPKTLIITRTATNATTTTHKVIFSKAPESTTTSPTLNTTGFADPNTTTGLPSSTHVPTNLTAPASTGPTVSTHHHHHH",binding result,no binding
